Consider 6 compounds from patent publication US20240216513A1, “FATTY ACID-BIFUNCTIONAL DEGRADER CONJUGATES AND THEIR METHODS OF USE” (Novartis AG, priority 2021, published 2024).

A short description of series [1]: BTK FAC plasma stability assay, PBS buffer arm. It is filed as physicochemical. To be noted: for Plasma stability (h) PBS: incubation to 24 h. Here is the method:
(§1) Plasma stability was conducted in Dulbecco's PBS buffer, mouse plasma, rat plasma or human plasma frozen with K3-EDTA from BiolVT). Thawed plasma was centrifuged prior to warming for 5 minutes at 37° C. Working solutions were prepared from 10 mM DMSO solution to 500 µM in acetonitrile:water (1:1); 2 µL of working solution was added to 198 µL blank plasma or PBS and mixed manually. 4×45 µL of spiked matrix was aliquoted into glass incubation plates (96-well DW glass microplate) and sealed with blue silicon/PTFE seal; then incubated on a Thermo shaker (38° C. 300 RPM). Samples were prepared at 0, 2, 6 and 24 h timepoints, by protein precipitation with chilled acetonitrile containing internal standard Glyburide (0.2 µM). Precipitated samples were shaken for 10 minutes and stored at 4° C. until completion of the study. Following precipitation of the terminal sample, samples were frozen at −80° C. for 1 hour. Samples were then thawed prior to centrifugation (20 minutes, 4500 RPM at 4° C.). 50 µL of supernatant of each sample was transferred to 384 well analysis plate containing 30 µL of water. Semi quantitative analysis (analyte: internal standard peak area ratio) was performed by LC-MS/MS using a Sciex QTrap 5500.

The nature of series [2]: BTK FAC plasma stability assay, mouse plasma. It is filed as in vitro ADME. The procedure:
as §1

A short description of series [3]: BTK FAC plasma stability assay, rat plasma. Type of series: in vitro ADME. The procedure: as §1
The nature of series [4]: BTK FAC plasma stability assay, dog plasma. Type of series: in vitro ADME.
Series [5] in a line: BTK FAC plasma stability assay, cyno plasma. Type of series: in vitro ADME, cynomolgus monkey.

Molecules are shown by their SMILES.

`CCCCCCCCCCCN(C(=O)CCCCCCCCCC(=O)O)C(CCC(=O)NCCOCCOCCOCCOCCOCCOCCOCCOCCOCCOCCOCCOCCOCCOCCOCCOCCC(=O)NCC(=O)OC(C)(C)c1ccc(C(=O)Nc2cc(F)cc(-c3ncnc4[nH]c(-c5ccc(CCN6CCC7(CC6)CCN(C(=O)c6ccc(OC)c(N8CCC(=O)NC8=O)c6)CC7)cc5)cc34)c2C)c(F)c1)C(=O)O` (stereo not shown) [Example A9, 62-Carboxy-2-(4-((3-(6-(4-(2-(9-(3-(2,4-dioxotetrahydropyrimidin-(2H)-yl)-4-methoxybenzoyl)-3,9-diazaspiro[5.5]undecan-3-yl)ethyl)phenyl)-7H-pyrrolo[2,3-d]pyrimidin-4-yl)-5-fluoro-2-methylphenyl)carbamoyl)-3-fluorophenyl)-2-methyl-4,7,59,64-tetraoxo-63-undecyl-3,10,13,16,19,22,25,28,31,34,37,40,43,46,49,52,55-heptadecaoxa-6,58,63-triazatetraheptacontan-74-oic acid]: in series [1], the “% Release of degrader after 24 h PBS” value is on record as 1.2% and the “Plasma stability (h) PBS” value is more than 48 h. Moreover, in series [2], the “% Release of degrader after 24 h mouse” value was found to be 15.6%. Also, the “Plasma stability (h) mouse” value in series [2] (incubation to 24 h) worked out at 4.6 h. Moreover, the “% Release of degrader after 24 h rat” value in series [3] amounted to 22.4%. The “Plasma stability (h) rat” value in series [3] (incubation to 24 h) was 6.8 h. Further, in series [4], the “Plasma stability (h) dog” value was more than 48 h and the “% Release of degrader after 24 h dog” value is listed as 5.7%. For the same compound, in series [5], the “Plasma stability (h) cyno” value is reported as 30.8 h and the “% Release of degrader after 24 h cyno” value worked out at 3.7%.
As for `CCCCCCCCCCCN(C(=O)CCCCCCCCCC(=O)O)C(CCC(=O)NCCOCCOCCOCCOCCOCCOCCOCCOCCOCCOCCOCCOCCC(=O)NCCC(=O)OC(C)(C)c1ccc(C(=O)Nc2cc(F)cc(-c3ncnc4[nH]c(-c5ccc(CCN6CCC7(CC6)CCN(C(=O)c6ccc(OC)c(N8CCC(=O)NC8=O)c6)CC7)cc5)cc34)c2C)c(F)c1)C(=O)O` (stereo not shown) [Example A12, 51-Carboxy-2-(4-((3-(6-(4-(2-(9-(3-(2,4-dioxotetrahydropyrimidin-1(2H)-yl)-4-methoxybenzoyl)-3,9-diazaspiro[5.5]undecan-3-yl)ethyl)phenyl)-7H-pyrrolo[2,3-d]pyrimidin-4-yl)-5-fluoro-2-methylphenyl)carbamoyl)-3-fluorophenyl)-2-methyl-4,8,48,53-tetraoxo-52-undecyl-3,11,14,17,20,23,26,29,32,35,38,41,44-tridecaoxa-7,47,52-triazatrihexacontan-63-oic acid], in series [1], the “% Release of degrader after 24 h PBS” value amounted to 0.3% and the “Plasma stability (h) PBS” value is more than 48 h. Also, in series [2], the “% Release of degrader after 24 h mouse” value came out at 14.2%. For the same compound, in series [2] (incubation to 24 h), the “Plasma stability (h) mouse” value turned out to be 27.3 h. The “% Release of degrader after 24 h rat” value in series [3] is 2%. Besides, the “Plasma stability (h) rat” value in series [3] (incubation to 24 h) is more than 49 h. In series [4], the “Plasma stability (h) dog” value was more than 48 h and the “% Release of degrader after 24 h dog” value stood at 1.2%. Further, in series [5], the “Plasma stability (h) cyno” value is 44.9 h and the “% Release of degrader after 24 h cyno” value came out at 0.5%.
Turning to `CCCCCCCCCCCN(C(=O)CCCCCCCCCC(=O)O)C(CCC(=O)NCCOCCOCCOCCOCCOCCOCCOCCOCCOCCOCCOCCOCCOCCOCCOCCOCCOCCOCCOCCOCCOCCOCCOCCOCCC(=O)NCC(=O)OC(C)(C)c1ccc(C(=O)Nc2cc(F)cc(-c3ncnc4[nH]c(-c5ccc(CCN6CCC7(CC6)CCN(C(=O)c6ccc(OC)c(N8CCC(=O)NC8=O)c6)CC7)cc5)cc34)c2C)c(F)c1)C(=O)O` (stereo not shown) [Example A32, 86-Carboxy-2-(4-((3-(6-(4-(2-(9-(3-(2,4-dioxotetrahydropyrimidin-1(2H)-yl)-4-methoxybenzoyl)-3,9-diazaspiro[5.5]undecan-3-yl)ethyl)phenyl)-7H-pyrrolo[2,3-d]pyrimidin-4-yl)-5-fluoro-2-methylphenyl)carbamoyl)-3-fluorophenyl)-2-methyl-4,7,83,88-tetraoxo-87-undecyl-3,10,13,16,19,22,25,28,31,34,37,40,43,46,49,52,55,58,61,64,67,70,73,76,79-pentacosaoxa-6,82,87-triazaoctanonacontan-98-oic acid], in series [1], the “% Release of degrader after 24 h PBS” value came out at 1% and the “Plasma stability (h) PBS” value is given as more than 48 h. For the same compound, the “% Release of degrader after 24 h mouse” value in series [2] came out at 5.8%. Moreover, the “Plasma stability (h) mouse” value in series [2] (incubation to 24 h) is given as 27 h. The “% Release of degrader after 24 h rat” value in series [3] was 6.1%. Besides, the “Plasma stability (h) rat” value in series [3] (incubation to 24 h) amounted to 20.8 h. In series [4], the “Plasma stability (h) dog” value stood at 37.3 h and the “% Release of degrader after 24 h dog” value is 4.7%.
In the case of `CCCCCCCCCCCN(C(=O)CCCCCCCCCC(=O)O)[C@@H](CCC(=O)N(CCNC(=O)CCOCCOCCOCCOCCOCCOCCOCCOCCOCCOCCOCCOC)CC(=O)OC(C)(C)c1ccc(C(=O)Nc2cc(F)cc(-c3ncnc4[nH]c(-c5ccc(CCN6CCC7(CC6)CCN(C(=O)c6ccc(OC)c(N8CCC(=O)NC8=O)c6)CC7)cc5)cc34)c2C)c(F)c1)C(=O)O` [Example A37, (S)-46-Carboxy-42-(2-((2-(4-((3-(6-(4-(2-(9-(3-(2,4-dioxotetrahydropyrimidin-1(2H)-yl)-4-methoxybenzoyl)-3,9-diazaspiro[5.5]undecan-3-yl)ethyl)phenyl)-7H-pyrrolo[2,3-d]pyrimidin-4-yl)-5-fluoro-2-methylphenyl)carbamoyl)-3-fluorophenyl)propan-2-yl)oxy)-2-oxoethyl)-38,43,48-trioxo-47-undecyl-2,5,8,11,14,17,20,23,26,29,32,35-dodecaoxa-39,42,47-triazaoctapentacontan-58-oic acid], the “% Release of degrader after 24 h PBS” value in series [1] stood at 1.7%. For the same compound, the “Plasma stability (h) PBS” value in series [1] is listed as more than 48 h. For the same compound, the “% Release of degrader after 24 h mouse” value in series [2] is recorded as 2.1%. For the same compound, the figures for the half-life at 5 µM in series [2] (incubation to 24 h), in series [3] (incubation to 24 h) and in series [4] (read-out: Plasma stability (h) dog (converted)) were more than 48 h, more than 48 h and 44.7 h, respectively. Moreover, the “% Release of degrader after 24 h rat” value in series [3] is recorded as 1.5%. In addition, the “% Release of degrader after 24 h dog” value in series [4] stood at 2.2%.
For the compound `CCCCCCCCCCCN(C(=O)CCCCCCCCCC(=O)O)C(CCC(=O)NCCOCCOCCOCCOCCOCCOCCOCCOCCOCCOCCOCCOCCC(=O)NCC(=O)NCn1c(-c2ccc(CCN3CCC4(CC3)CCN(C(=O)c3ccc(OC)c(N5CCC(=O)NC5=O)c3)CC4)cc2)cc2c(-c3cc(F)cc(NC(=O)c4ccc(C(C)(C)O)cc4F)c3C)ncnc21)C(=O)O` (stereo not shown) [Example A38, 49-Carboxy-1-(6-(4-(2-(9-(3-(2,4-dioxotetrahydropyrimidin-1(2H)-yl)-4-methoxybenzoyl)-3,9-diazaspiro[5.5]undecan-3-yl)ethyl)phenyl)-4-(5-fluoro-3-(2-fluoro-4-(2-hydroxypropan-2-yl)benzamido)-2-methylphenyl)-7H-pyrrolo[2,3-d]pyrimidin-7-yl)-3,6,46,51-tetraoxo-50-undecyl-9,12,15,18,21,24,27,30,33,36,39,42-dodecaoxa-2,5,45,50-tetraazahenhexacontan-61-oic acid], in series [1], the “% Release of degrader after 24 h PBS” value is recorded as 0.2% and the “Plasma stability (h) PBS” value is more than 48 h. Further, the “% Release of degrader after 24 h mouse” value in series [2] stood at 0.1%. Moreover, the “Plasma stability (h) mouse” value in series [2] (incubation to 24 h) was more than 48 h. Further, in series [3], the “% Release of degrader after 24 h rat” value was 0.1%. In series [3] (incubation to 24 h), the “Plasma stability (h) rat” value was more than 48 h. Besides, in series [4], the “Plasma stability (h) dog” value was more than 48 h and the “% Release of degrader after 24 h dog” value is given as 0.1%.
Take `CCCCCCCCCCCN(C(=O)CCCCCCCCCC(=O)O)C(CCC(=O)NCCOCCOCCOCCOCCOCCOCCOCCOCCOCCOCCOCCOCCC(=O)NCCOP(=O)(O)OC(C)(C)c1ccc(C(=O)Nc2cc(F)cc(-c3ncnc4[nH]c(-c5ccc(CCN6CCC7(CC6)CCN(C(=O)c6ccc(OC)c(N8CCC(=O)NC8=O)c6)CC7)cc5)cc34)c2C)c(F)c1)C(=O)O` (stereo not shown) [Example A39, 47-Carboxy-1-((((2-(4-((3-(6-(4-(2-(9-(3-(2,4-dioxotetrahydropyrimidin-1(2H)-yl)-4-methoxybenzoyl)-3,9-diazaspiro[5.5]undecan-3-yl)ethyl)phenyl)-7H-pyrrolo[2,3-d]pyrimidin-4-yl)-5-fluoro-2-methylphenyl)carbamoyl)-3-fluorophenyl)propan-2-yl)oxy)(hydroxy)phosphoryl)oxy)-4,44,49-trioxo-48-undecyl-7,10,13,16,19,22,25,28,31,34,37,40-dodecaoxa-3,43,48-triazanonapentacontan-59-oic acid]: in series [1], the “% Release of degrader after 24 h PBS” value amounted to 0% and the “Plasma stability (h) PBS” value is reported as more than 48 h. Also, in series [2], the “% Release of degrader after 24 h mouse” value is listed as 0%. In addition, in series [2] (incubation to 24 h), the “Plasma stability (h) mouse” value is more than 48 h. In addition, the “% Release of degrader after 24 h rat” value in series [3] was 0%. In addition, the “Plasma stability (h) rat” value in series [3] (incubation to 24 h) is on record as more than 48 h. Moreover, in series [4], the “Plasma stability (h) dog” value worked out at 39.0 h and the “% Release of degrader after 24 h dog” value was 0%.
